Measured values: the supplement of paper PMC10567573

B1: IKZF1 (parent)
chain: RDPFECNMCGYHSQDRYEFSSHIT

Variants of: B1
Assay: protein stability index of a GFP-peptide fusion (GPS, HEK-293T) (PSI 1-6); higher = more stable
Conditions: c terminus: a fixed tail appended
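Note: lentivirally expressed fusions sorted by FACS into six bins by GFP to DsRed ratio, PSI derived from sequencing read proportions per bin multiplied by bin number.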

Variant	protein stability index
RDPFECNMCGYHSQDRYEDSSHIT	3.29
RDPFECNMCGYHSQDRYECSSHIT	2.39
RDPFECNMCGYHSQDRYERSSHIT	2.38
RDPFECNMCGYHSQDRYEESSHIT	3.35
RDPFECNMCGYHSQDRYEWSSHIT	1.44
RDPFECNMCGYHSQDRYEASSHIT	2.59
RDPFECNMCGYHSQDRYELSSHIT	1.61
RDPFECNMCGYHSQDRYETSSHIT	2.94
RDPFECNMCGYHSQDRYEPSSHIT	3
RDPFECNMCGYHSQDRYENSSHIT	3.27
RDPFECNMCGYHSQDRYEHSSHIT	3.13
RDPFECNMCGYHSQDRYEVSSHIT	2.08
RDPFECNMCGYHSQDRYEYSSHIT	2.47
RDPFECNMCGYHSQDRYEGSSHIT	3.13
RDPFECNMCGYHSQDRYEMSSHIT	2.28
RDPFECNMCGYHSQDRYEQSSHIT	3.14
RDPFECNMCGYHSQDRYEKSSHIT	3.06
RDPFECNMCGYHSQDRYESSSHIT	2.6
RDPFECNMCGYHSQDRYEISSHIT	2.4
RDPFECNMCGYHSQDRMEFSSHIT	2.16
RDPFECNMCGYHSQDRVEFSSHIT	1.76
RDPFECNMCGYHSQDRSEFSSHIT	2.43
RDPFECNMCGYHSQDRGEFSSHIT	2.19
RDPFECNMCGYHSQDRHEFSSHIT	2.81

Variant	protein stability index
RDPFECNMCGYHSQDRTEFSSHIT	1.89
RDPFECNMCGYHSQDRIEFSSHIT	2.16
RDPFECNMCGYHSQDRCEFSSHIT	2.38
RDPFECNMCGYHSQDRREFSSHIT	2.1
RDPFECNMCGYHSQDRQEFSSHIT	2.1
RDPFECNMCGYHSQDRWEFSSHIT	2.54
RDPFECNMCGYHSQDRFEFSSHIT	2.07
RDPFECNMCGYHSQDRPEFSSHIT	2.81
RDPFECNMCGYHSQDRDEFSSHIT	3.1
RDPFECNMCGYHSQDRAEFSSHIT	2.28
RDPFECNMCGYHSQDREEFSSHIT	3
RDPFECNMCGYHSQDRLEFSSHIT	2.22
RDPFECNMCGYHSQDRKEFSSHIT	2.21
RDPFECNMCGYHSQDRNEFSSHIT	2.83
RDPFECNMCGYHSQDRYIFSSHIT	2.18
RDPFECNMCGYHSQDRYGFSSHIT	2.63
RDPFECNMCGYHSQDRYMFSSHIT	1.54
RDPFECNMCGYHSQDRYYFSSHIT	1.43
RDPFECNMCGYHSQDRYDFSSHIT	2.38
RDPFECNMCGYHSQDRYWFSSHIT	1.51
RDPFECNMCGYHSQDRYQFSSHIT	1.79
RDPFECNMCGYHSQDRYLFSSHIT	2.21
RDPFECNMCGYHSQDRYNFSSHIT	1.54
RDPFECNMCGYHSQDRYVFSSHIT	2.72

Variant	protein stability index
RDPFECNMCGYHSQDRYAFSSHIT	1.91
RDPFECNMCGYHSQDRYTFSSHIT	1.54
RDPFECNMCGYHSQDRYFFSSHIT	2.39
RDPFECNMCGYHSQDRYSFSSHIT	2.11
RDPFECNMCGYHSQDRYCFSSHIT	1.91
RDPFECNMCGYHSQDRYPFSSHIT	1.67
RDPFECNMCGYHSQDRYKFSSHIT	1.74
RDPFECNMCGYHSQDRYRFSSHIT	1.99
RDPFECNMCGYHSQDRYHFSSHIT	2.08
RDPFECNMCGYHSSDRYEFSSHIT	2.43
RDPFECNMCGYHSKDRYEFSSHIT	1.97
RDPFECNMCGYHSADRYEFSSHIT	1.98
RDPFECNMCGYHSMDRYEFSSHIT	1.86
RDPFECNMCGYHSWDRYEFSSHIT	1.22
RDPFECNMCGYHSYDRYEFSSHIT	2.31
RDPFECNMCGYHSTDRYEFSSHIT	2.17
RDPFECNMCGYHSFDRYEFSSHIT	1.47
RDPFECNMCGYHSIDRYEFSSHIT	2.13
RDPFECNMCGYHSDDRYEFSSHIT	2.09
RDPFECNMCGYHSCDRYEFSSHIT	1.87
RDPFECNMCGYHSHDRYEFSSHIT	2.22
RDPFECNMCGYHSPDRYEFSSHIT	2.3
RDPFECNMCGYHSRDRYEFSSHIT	2.25
RDPFECNMCGYHSNDRYEFSSHIT	2.42

Variant	protein stability index
RDPFECNMCGYHSLDRYEFSSHIT	1.93
RDPFECNMCGYHSVDRYEFSSHIT	1.85
RDPFECNMCGYHSEDRYEFSSHIT	2.29
RDPFECNMCGYHSGDRYEFSSHIT	2.38
RDPFECNMCGYTSQDRYEFSSHIT	2.53
RDPFECNMCGYQSQDRYEFSSHIT	3.01
RDPFECNMCGYLSQDRYEFSSHIT	2.69
RDPFECNMCGYWSQDRYEFSSHIT	1.63
RDPFECNMCGYISQDRYEFSSHIT	2
RDPFECNMCGYMSQDRYEFSSHIT	1.5
RDPFECNMCGYGSQDRYEFSSHIT	2.25
RDPFECNMCGYESQDRYEFSSHIT	2.39
RDPFECNMCGYCSQDRYEFSSHIT	1.82
RDPFECNMCGYFSQDRYEFSSHIT	2.15
RDPFECNMCGYKSQDRYEFSSHIT	2.27
RDPFECNMCGYVSQDRYEFSSHIT	1.75
RDPFECNMCGYDSQDRYEFSSHIT	2.69
RDPFECNMCGYRSQDRYEFSSHIT	2.23
RDPFECNMCGYYSQDRYEFSSHIT	1.97
RDPFECNMCGYNSQDRYEFSSHIT	2.72
RDPFECNMCGYASQDRYEFSSHIT	2.6
RDPFECNMCGYPSQDRYEFSSHIT	2.49
RDPFECNMCGYSSQDRYEFSSHIT	2.06
RDPFECNMCGYHSQDRYEFESHIT	2.64

Variant	protein stability index
RDPFECNMCGYHSQDRYEFHSHIT	2.21
RDPFECNMCGYHSQDRYEFMSHIT	2.06
RDPFECNMCGYHSQDRYEFFSHIT	1.59
RDPFECNMCGYHSQDRYEFLSHIT	2.44
RDPFECNMCGYHSQDRYEFQSHIT	1.94
RDPFECNMCGYHSQDRYEFCSHIT	3.08
RDPFECNMCGYHSQDRYEFPSHIT	2.51
RDPFECNMCGYHSQDRYEFGSHIT	2.05
RDPFECNMCGYHSQDRYEFRSHIT	2.08
RDPFECNMCGYHSQDRYEFNSHIT	2.08
RDPFECNMCGYHSQDRYEFDSHIT	2.3
RDPFECNMCGYHSQDRYEFASHIT	2.13
RDPFECNMCGYHSQDRYEFISHIT	2.06
RDPFECNMCGYHSQDRYEFKSHIT	1.93
RDPFECNMCGYHSQNRYEFSSHIT	2.17
RDPFECNMCGYHSQCRYEFSSHIT	2.32
RDPFECNMCGYHSQPRYEFSSHIT	2.01
RDPFECNMCGYHSQHRYEFSSHIT	1.68
RDPFECNMCGYHSQERYEFSSHIT	1.87
RDPFECNMCGYHSQRRYEFSSHIT	2.14
RDPFECNMCGYHSQARYEFSSHIT	1.98
RDPFECNMCGYHSQGRYEFSSHIT	1.98
RDPFECNMCGYHSQVRYEFSSHIT	1.8
RDPFECNMCGYHSQLRYEFSSHIT	1.81

Variant	protein stability index
RDPFECNMCGYHSQTRYEFSSHIT	2.12
RDPFECNMCGYHSQQRYEFSSHIT	2.34
RDPFECNMCGYHSQFRYEFSSHIT	1.76
RDPFECNMCGYHSQYRYEFSSHIT	1.66
RDPFECNMCGYHSQWRYEFSSHIT	2.13
RDPFECNMCGYHSQSRYEFSSHIT	1.54
RDPFECNMCGYHSQIRYEFSSHIT	1.56
RDPFECNMCGYHSQKRYEFSSHIT	1.65
RDPFECNMCGYHSQMRYEFSSHIT	2.02
RDPFECNMCGWHSQDRYEFSSHIT	1.45
RDPFECNMCGGHSQDRYEFSSHIT	3.49
RDPFECNMCGDHSQDRYEFSSHIT	3.51
RDPFECNMCGKHSQDRYEFSSHIT	3.13
RDPFECNMCGMHSQDRYEFSSHIT	2.59
RDPFECNMCGQHSQDRYEFSSHIT	2.61
RDPFECNMCGCHSQDRYEFSSHIT	2.13
RDPFECNMCGHHSQDRYEFSSHIT	2.71
RDPFECNMCGSHSQDRYEFSSHIT	2.62
RDPFECNMCGTHSQDRYEFSSHIT	2.6
RDPFECNMCGVHSQDRYEFSSHIT	2.45
RDPFECNMCGFHSQDRYEFSSHIT	2.01
RDPFECNMCGIHSQDRYEFSSHIT	1.86
RDPFECNMCGNHSQDRYEFSSHIT	2.71
RDPFECNMCGPHSQDRYEFSSHIT	2.69

Variant	protein stability index
RDPFECNMCGLHSQDRYEFSSHIT	2.65
RDPFECNMCGAHSQDRYEFSSHIT	2.58
RDPFECNMCGRHSQDRYEFSSHIT	2.62
RDPFECNMCGEHSQDRYEFSSHIT	3.29
RDPFECNMCGYHAQDRYEFSSHIT	2.26
RDPFECNMCGYHLQDRYEFSSHIT	1.75
RDPFECNMCGYHIQDRYEFSSHIT	1.91
RDPFECNMCGYHQQDRYEFSSHIT	2.39
RDPFECNMCGYHMQDRYEFSSHIT	1.66
RDPFECNMCGYHRQDRYEFSSHIT	2.04
RDPFECNMCGYHKQDRYEFSSHIT	2.1
RDPFECNMCGYHWQDRYEFSSHIT	2.28
RDPFECNMCGYHPQDRYEFSSHIT	3
RDPFECNMCGYHCQDRYEFSSHIT	1.74
RDPFECNMCGYHVQDRYEFSSHIT	1.91
RDPFECNMCGYHEQDRYEFSSHIT	2.53
RDPFECNMCGYHTQDRYEFSSHIT	2.1
RDPFECNMCGYHDQDRYEFSSHIT	2.49
RDPFECNMCGYHHQDRYEFSSHIT	3.15
RDPFECNMCGYHNQDRYEFSSHIT	2.39
RDPFECNMCGYHGQDRYEFSSHIT	2.17
RDPFECNMCGYHYQDRYEFSSHIT	1.92
RDPFECNMCGYHFQDRYEFSSHIT	1.78
RDPFECNMCWYHSQDRYEFSSHIT	1.73

Variant	protein stability index
RDPFECNMCYYHSQDRYEFSSHIT	2.66
RDPFECNMCGYHSQDWYEFSSHIT	2.03
RDPFECNMCGYHSQDPYEFSSHIT	2.5
RDPFECNMCGYHSQDIYEFSSHIT	2.74
RDPFECNMCGYHSQDMYEFSSHIT	2.78
RDPFECNMCGYHSQDYYEFSSHIT	1.75
RDPFECNMCGYHSQDFYEFSSHIT	2.21
RDPFECNMCGYHSQDSYEFSSHIT	1.98
RDPFECNMCGYHSQDQYEFSSHIT	2.33
RDPFECNMCGYHSQDCYEFSSHIT	2.23
RDPFECNMCGYHSQDVYEFSSHIT	2.42
RDPFECNMCGYHSQDTYEFSSHIT	2.6
RDPFECNMCGYHSQDLYEFSSHIT	2.12
RDPFECNMCGYHSQDHYEFSSHIT	2.51
RDPFECNMCGYHSQDEYEFSSHIT	3.15
RDPFECNMCGYHSQDGYEFSSHIT	2.56
RDPFECNMCGYHSQDNYEFSSHIT	2.57
RDPFECNMCGYHSQDAYEFSSHIT	2.3
RDPFECNMCGYHSQDKYEFSSHIT	2.01
RDPFECNMCGYHSQDDYEFSSHIT	2.85
